PMC6882888, “Two-tiered enforcement of high-fidelity DNA ligation”

Tests used:
LIG1 E346A/E592A (EE/AA) [1] = target: T1, LIG1 E346A/E592A (EE/AA) (Homo sapiens, UniProt P18858 262-904, E346A;E592A); assay: X-ray crystallography (2.20 A); 200 mM Mg2+ in cryoprotectant, 1 mM ATP; Crystals: complex in 150 mM NaCl, 20 mM Tris-Cl pH 7.5, 1 mM TCEP, 1 mM ATP mixed 1:1 with 100 mM MES pH 6, 100 mM lithium acetate, 15% PEG3350; ligation/trapping: 50 mM NaMOPS pH 7.5, 1 mM DTT, 0.05 mg/mL BSA, ionic strength 150 mM (NaCl), 37 C; details: protein: recombinant; tags: His-tag removed by TEV; nicked duplex, 11mer + 7mer on 18mer template, blunt ends
LIG1 WT [2] = target: T2, LIG1 WT (Homo sapiens, UniProt P18858 262-904); assay: X-ray crystallography (2.05 A); 200 mM Mg2+ in cryoprotectant, 1 mM ATP; AMP-DNA intermediate; 4 Mg2+ sites; Crystals: complex in 150 mM NaCl, 20 mM Tris-Cl pH 7.5, 1 mM TCEP, 1 mM ATP mixed 1:1 with 100 mM MES pH 6, 100 mM lithium acetate, 15% PEG3350; ligation/trapping: 50 mM NaMOPS pH 7.5, 1 mM DTT, 0.05 mg/mL BSA, ionic strength 150 mM (NaCl), 37 C; details: protein: recombinant; tags: His-tag removed by TEV; nicked duplex, 11mer + 7mer on 18mer template, blunt ends
LIG1 E346A/E592A (EE/AA) [3] = target: T1, LIG1 E346A/E592A (EE/AA); assay: X-ray crystallography (1.85 A); 2 mM EDTA in cryoprotectant, 1 mM ATP; 5'-adenylylated; Crystals: complex in 150 mM NaCl, 20 mM Tris-Cl pH 7.5, 1 mM TCEP, 1 mM ATP mixed 1:1 with 100 mM MES pH 6, 100 mM lithium acetate, 15% PEG3350; ligation/trapping: 50 mM NaMOPS pH 7.5, 1 mM DTT, 0.05 mg/mL BSA, ionic strength 150 mM (NaCl), 37 C; details: protein: recombinant; tags: His-tag removed by TEV; nicked duplex, 11mer + 7mer on 18mer template, blunt ends, 8oxoG:A Hoogsteen pair at nick
LIG1 WT [4] = target: T2, LIG1 WT; assay: X-ray crystallography (1.55 A); 2 mM EDTA in cryoprotectant, 1 mM ATP; Crystals: complex in 150 mM NaCl, 20 mM Tris-Cl pH 7.5, 1 mM TCEP, 1 mM ATP mixed 1:1 with 100 mM MES pH 6, 100 mM lithium acetate, 15% PEG3350; ligation/trapping: 50 mM NaMOPS pH 7.5, 1 mM DTT, 0.05 mg/mL BSA, ionic strength 150 mM (NaCl), 37 C; details: protein: recombinant; tags: His-tag removed by TEV; nicked duplex, 11mer + 7mer on 18mer template, blunt ends
LIG1 E346A/E592A (EE/AA) [5] = target: T1, LIG1 E346A/E592A (EE/AA); assay: X-ray crystallography (1.75 A); 2 mM EDTA in cryoprotectant, 1 mM ATP; 5'-adenylylated; Crystals: complex in 150 mM NaCl, 20 mM Tris-Cl pH 7.5, 1 mM TCEP, 1 mM ATP mixed 1:1 with 100 mM MES pH 6, 100 mM lithium acetate, 15% PEG3350; ligation/trapping: 50 mM NaMOPS pH 7.5, 1 mM DTT, 0.05 mg/mL BSA, ionic strength 150 mM (NaCl), 37 C; details: protein: recombinant; tags: His-tag removed by TEV; nicked duplex, 11mer + 7mer on 18mer template, blunt ends
LIG1 E592R = LIG1 E592R (Homo sapiens, UniProt P18858 262-904, E592R); assay: X-ray crystallography (1.85 A); 2 mM EDTA in cryoprotectant, 1 mM ATP; Crystals: complex in 150 mM NaCl, 20 mM Tris-Cl pH 7.5, 1 mM TCEP, 1 mM ATP mixed 1:1 with 100 mM MES pH 6, 100 mM lithium acetate, 15% PEG3350; ligation/trapping: 50 mM NaMOPS pH 7.5, 1 mM DTT, 0.05 mg/mL BSA, ionic strength 150 mM (NaCl), 37 C; details: protein: recombinant; tags: His-tag removed by TEV; nicked duplex, 11mer + 7mer on 18mer template, blunt ends
Chain of LIG1 E592R (P18858 262-904 E592R): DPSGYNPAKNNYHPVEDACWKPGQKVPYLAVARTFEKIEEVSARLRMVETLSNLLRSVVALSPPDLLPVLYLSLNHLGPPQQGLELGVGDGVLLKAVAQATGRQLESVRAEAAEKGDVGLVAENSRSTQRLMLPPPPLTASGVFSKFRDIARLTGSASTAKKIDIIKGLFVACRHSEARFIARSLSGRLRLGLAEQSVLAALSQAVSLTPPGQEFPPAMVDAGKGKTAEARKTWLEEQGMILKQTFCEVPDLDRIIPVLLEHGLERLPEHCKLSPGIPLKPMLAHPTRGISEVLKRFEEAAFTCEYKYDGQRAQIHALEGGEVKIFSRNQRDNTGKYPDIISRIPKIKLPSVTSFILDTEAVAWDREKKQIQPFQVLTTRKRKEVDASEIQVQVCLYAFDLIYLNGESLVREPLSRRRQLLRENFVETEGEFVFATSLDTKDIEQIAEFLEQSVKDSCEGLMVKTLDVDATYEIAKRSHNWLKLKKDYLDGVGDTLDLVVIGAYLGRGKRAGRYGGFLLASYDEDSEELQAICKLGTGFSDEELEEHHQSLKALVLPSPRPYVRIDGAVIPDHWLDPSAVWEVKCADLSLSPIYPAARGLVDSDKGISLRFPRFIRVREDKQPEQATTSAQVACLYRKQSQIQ

T1 sequence (P18858 262-904 E346A/E592A): as the sequence (P18858 262-904 E592R) above, with E85A, R331A counted along it
T2 sequence (P18858 262-904): as the sequence (P18858 262-904 E592R) above, with R331E counted along it

B1: nicked 18mer 3'ddC (oligos 1,2,3) (dsDNA)
DNA 1: GTCCGACGACGCATCAGC
DNA 2: GCTGATGCGTC
DNA 3: GTCGGAC
modifications: 3'-terminal C of 11mer is ddC; 5' phosphate on 7mer, 5'-adenylylated in the complex
LIG1 E346A/E592A (EE/AA) [1]
  binding result: binds
LIG1 WT [2]
  binding result: binds

B2: nicked 18mer 3'-8oxoG:A (oligos 3,5,6) (dsDNA)
DNA 1: GTCCGACAACGCATCAGC
DNA 2: GCTGATGCGTG
DNA 3: GTCGGAC
modifications: 3'-terminal G of 11mer is 8oxoG (opposite A); 5' phosphate on 7mer, 5'-adenylylated in the crystal
LIG1 E346A/E592A (EE/AA) [3]
  binding result: binds

B3: nicked 18mer 3'OH (oligos 1,3,4) (dsDNA)
DNA 1: GTCCGACGACGCATCAGC
DNA 2: GCTGATGCGTC
DNA 3: GTCGGAC
modifications: 5' phosphate on 7mer, 5'-adenylylated in the crystal
LIG1 WT [4]
  binding result: binds
LIG1 E346A/E592A (EE/AA) [5]
  binding result: binds
LIG1 E592R
  binding result: binds
